Data taken from paper PMC11162792 (Nucleic Acids Research, 2023).

Assays:
[1] = molecular target: PEDV nsp12-A382R (porcine epidemic diarrhea virus (PEDV)); assay: native MS
PEDV nsp12 = molecular target: T1, PEDV nsp12 (porcine epidemic diarrhea virus (PEDV), UniProt P0C6Y4); assay: native MS
T1 sequence: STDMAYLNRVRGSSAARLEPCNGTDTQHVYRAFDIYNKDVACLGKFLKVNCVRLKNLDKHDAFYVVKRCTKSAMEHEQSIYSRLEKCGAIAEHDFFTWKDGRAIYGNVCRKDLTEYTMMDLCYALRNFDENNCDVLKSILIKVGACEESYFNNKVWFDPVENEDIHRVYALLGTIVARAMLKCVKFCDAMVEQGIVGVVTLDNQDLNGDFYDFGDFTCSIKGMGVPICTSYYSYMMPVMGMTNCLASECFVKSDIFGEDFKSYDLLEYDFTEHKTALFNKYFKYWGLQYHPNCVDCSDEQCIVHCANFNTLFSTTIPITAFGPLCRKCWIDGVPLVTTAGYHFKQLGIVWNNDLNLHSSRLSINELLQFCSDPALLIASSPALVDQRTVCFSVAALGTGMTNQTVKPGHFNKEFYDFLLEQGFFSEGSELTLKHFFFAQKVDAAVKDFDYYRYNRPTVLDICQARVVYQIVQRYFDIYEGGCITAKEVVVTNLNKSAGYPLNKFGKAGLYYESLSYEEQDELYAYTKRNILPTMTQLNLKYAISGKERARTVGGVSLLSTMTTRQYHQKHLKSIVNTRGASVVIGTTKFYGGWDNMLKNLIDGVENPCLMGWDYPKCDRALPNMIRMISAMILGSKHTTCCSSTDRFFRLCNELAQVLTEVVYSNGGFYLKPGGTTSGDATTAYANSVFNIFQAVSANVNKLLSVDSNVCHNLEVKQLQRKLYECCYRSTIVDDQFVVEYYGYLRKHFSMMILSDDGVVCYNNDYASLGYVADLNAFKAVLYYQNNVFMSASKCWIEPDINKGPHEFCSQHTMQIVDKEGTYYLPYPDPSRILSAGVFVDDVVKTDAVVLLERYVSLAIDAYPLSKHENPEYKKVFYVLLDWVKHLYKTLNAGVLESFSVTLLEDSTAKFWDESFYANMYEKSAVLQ

[2] = molecular target: PEDV nsp12 (RdRp);PEDV nsp7;PEDV nsp8 (Porcine epidemic diarrhea virus …, UniProt P0C6Y4;P0C6Y4;P0C6Y4 4101-5027;3580-3662;3663-3857, ||); assay: native mass spectrometry

For PEDV nsp12-A382R (enzyme), the stoichiometry N [1] was 2.

B1: PEDV nsp8 (natural protein)
chain: SVASTYVGLPSYVIYENARQQYEDAVNNGSPPQLVKQLRHAMNVAKSEFDREASTQRKLDRMAEQAAAQMYKEARAVNRKSKVVSAMHSLLFGMLRRLDMSSVDTILNLAKDGVVPLSVIPAVSATKLNIVTSDIDSYNRIQREGCVHYAGTIWNIIDIKDNDGKVVHVKEVTAQNAESLSWPLVLGCERIVKLQ
With B1 the “stoichiometry N” value (PEDV nsp12) was 2.

B2: PEDV nsp7 (natural protein)
chain: SKLTDIKCSNVVLLGCLSSMNVSANSTEWAYCVDLHNKINLCNDPEKAQEMLLALLAFFLSKNSAFGLDDLLESYFNDNSMLQ
B2 was tested, and the “stoichiometry N” value (PEDV nsp12) was 1.

B3: Pair 1 primer/template RNA (short) (dsRNA)
RNA 1: CAUUCUCCUAAGAAGCUAUUAAAAUCACA
RNA 2: AAAAAGGGUUGUGAUUUUAAUAGCUUCUUAGGAGAAUG
B3: binds [2].
